# Measured values from publication PMC6168263 (The Journal of Cell Biology, 2018).
# B1: 6His-Bnr1 FH2 (868-1,291) (domain or fragment, S. cerevisiae, UniProt P40450 868-1291, looked up)
# chain: DLKPPPTEKRLKQIHWDKVEDIKDTLWEDTFQRQETIKELQTDGIFSQIEDIFKMKSPTKIANKRNAESSIALSSNNGKSSNELKKISFLSRDLAQQFGINLHMFSQLSDMEFVMKVLNCDNDIVQNVNILKFFCKEELVNIPKSMLNKYEPYSQGKDGKAVSDLQRADRIFLELCINLRFYWNARSKSLLTLSTYERDYYDLIFKLQKIDDAISHLNRSPKFKSLMFIITEIGNHMNKRIVKGIKLKSLTKLAFVRSSIDQNVSFLHFIEKVIRIKYPDIYGFVDDLKNIEDLGKISLEHVESECHEFHKKIEDLVTQFQVGKLSKEENLDPRDQIIKKVKFKINRAKTKSELLIGQCKLTLIDLNKLMKYYGEDPKDKESKNEFFQPFIEFLAMFKKCAKENIEKEEMERVYEQRKSLLDMR
# What was measured:
# [1] = target: the molecule itself; assay: negative-stain single-particle EM
# [2] = target: 6His-Bnr1 FH1-FH2-C (residues 757-1,375) (S. cerevisiae, UniProt P40450 757-1375); assay: negative-stain single-particle EM
# [3] = target: 649-biotin-SNAP-C-Bnr1 (S. cerevisiae, UniProt P40450 757-1375, BG-649-PEG-Biotin on the SNAP tag); assay: TIRF microscopy of labelled protein on formin-coated beads
# [4] = target: B1; assay: negative-stain single-particle EM
# Sequence of 649-biotin-SNAP-C-Bnr1 (P40450 757-1375): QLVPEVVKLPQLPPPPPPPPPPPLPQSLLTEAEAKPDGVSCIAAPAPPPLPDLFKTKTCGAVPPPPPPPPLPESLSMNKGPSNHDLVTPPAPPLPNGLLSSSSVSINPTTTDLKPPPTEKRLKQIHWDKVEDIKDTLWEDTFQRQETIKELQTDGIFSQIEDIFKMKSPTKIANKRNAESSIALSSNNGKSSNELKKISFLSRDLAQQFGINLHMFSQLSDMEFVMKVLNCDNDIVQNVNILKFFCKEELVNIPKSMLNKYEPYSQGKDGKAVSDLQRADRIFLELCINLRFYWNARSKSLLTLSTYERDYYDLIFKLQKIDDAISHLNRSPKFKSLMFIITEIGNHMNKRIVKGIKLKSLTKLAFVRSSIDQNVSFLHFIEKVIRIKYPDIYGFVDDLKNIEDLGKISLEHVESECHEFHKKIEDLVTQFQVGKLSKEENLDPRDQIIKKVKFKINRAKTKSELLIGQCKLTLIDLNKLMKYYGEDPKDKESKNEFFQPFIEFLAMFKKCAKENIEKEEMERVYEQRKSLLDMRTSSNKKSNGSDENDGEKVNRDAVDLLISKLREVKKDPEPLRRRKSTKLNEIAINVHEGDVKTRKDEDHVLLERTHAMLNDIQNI
# Sequence of 6His-Bnr1 FH1-FH2-C (residues 757-1,375) (P40450 757-1375): as above
binder,measurement,setting,value
B1,stoichiometry N,[1],2
"MBP-Hof1-FL-6His (natural protein, S. cerevisiae, UniProt Q05080 1-669, looked up) MSYSYEACFWDPNDNGVNILLGHISQGIRSCDSMILFFKQRSELEKDYARRLGAITGKLDKDIGTNMDYGKLNETFNVVLSVEKARAQSHSKQSEILFRQIYTDTKAFAANLQARYTTLSGKIERLRMDKFNKKKGCEVLQKKLQDAQIRFRDLQLNENNMIGAKRVEHNKRELLKWESNSQEYKVQLDVLKQEYKASQKFWIHEWAQLSCELQEMENARISFLQSKLQQFATSSMETYILEQTKMDMLTNHLNSFTAADEISTFSKENGTGRLKHKTSKGDMNSSANWAQMSSISTTSKKTESYMDNIRKLSSQLKETENKRKLASIDKYEKPLPSPEVTMATQFRNSTPVIRNETKVVANPTLSLRSSPVQLQSNVDDSVLRQKPDKPRPIVGEEQLKPDEDSKNPDEKGLMVHKRNQSLSSPSESSSSNPTDFSHIKKRQSMESMTTSVSSMANSIDDSQRFAKSWNSSNRKRKSMSHLQVPSSASSRSDDGGRTPNSAHNLNEDDYNTRRDTSTSTILFKPPVAVRGTSRGHTHRQSMIMQDSSNPIEDALYEMERIQSSSKPGTKTGNIMDERGVVRDRGITVTLPIVTSEGFPVIEYAKAMYPLIGNEAPGLANFHKGDYLLITEIVNKDWYKGEVYDNDRIDRNHRIGLIPYNFIQLLHQGL",stoichiometry N,[2],2 C-Bnr1 dimers per Hof1-FL dimer
"C-Bud6 (550-788) (domain or fragment, S. cerevisiae, UniProt P41697 550-788, looked up) AKNSSNRMYMEKSQTELGDLSDTLLSKVDDLQDVIEIMRKDVAERRSQPAKKKLETVSKDLENAQADVLKLQEFIDTEKPHWKKTWEAELDKVCEEQQFLTLQEELILDLKEDLGKALETFDLIKLCCEEQEKNPSRSKSNPILPIMRPGTFNQVREQVMVAVQSLNPDHDSRVEAIDKAEKMWEMERKLKASNEFDDELENFVGNSNLKKSGGFEEVERIRKQKDEANLRAYFGPGFT",binding result,[3],binds
"MBP-Hof1 F-BAR (1-275) (domain or fragment, S. cerevisiae, UniProt Q05080 1-275, looked up) MSYSYEACFWDPNDNGVNILLGHISQGIRSCDSMILFFKQRSELEKDYARRLGAITGKLDKDIGTNMDYGKLNETFNVVLSVEKARAQSHSKQSEILFRQIYTDTKAFAANLQARYTTLSGKIERLRMDKFNKKKGCEVLQKKLQDAQIRFRDLQLNENNMIGAKRVEHNKRELLKWESNSQEYKVQLDVLKQEYKASQKFWIHEWAQLSCELQEMENARISFLQSKLQQFATSSMETYILEQTKMDMLTNHLNSFTAADEISTFSKENGTGRLK",stoichiometry N,[4],2 Bnr1 FH2 domains per Hof1 F-BAR domain
"MBP-Hof1-NT-SNAP-549 (domain or fragment, S. cerevisiae, UniProt Q05080 1-340, looked up, BG-549 SNAP dye on the SNAP tag) MSYSYEACFWDPNDNGVNILLGHISQGIRSCDSMILFFKQRSELEKDYARRLGAITGKLDKDIGTNMDYGKLNETFNVVLSVEKARAQSHSKQSEILFRQIYTDTKAFAANLQARYTTLSGKIERLRMDKFNKKKGCEVLQKKLQDAQIRFRDLQLNENNMIGAKRVEHNKRELLKWESNSQEYKVQLDVLKQEYKASQKFWIHEWAQLSCELQEMENARISFLQSKLQQFATSSMETYILEQTKMDMLTNHLNSFTAADEISTFSKENGTGRLKHKTSKGDMNSSANWAQMSSISTTSKKTESYMDNIRKLSSQLKETENKRKLASIDKYEKPLPSPEV",binding result,[3],binds
